Source: the supplement of paper PMC9170038

System: MS2 coat protein
Assay: apparent KD of MS2 coat protein; designed switch direction (-1 OFF switch, 1 ON switch): -1; higher = weaker reporter binding
Method in brief: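 Designed RNA switches with common flanks were transcribed on Illumina chips by stalled E. coli RNA polymerase and titrated with SNAP-549-labelled MS2 coat protein, from 0.7 or 1.5 nM doubling to 3 µM, in Tris-HCl pH 7.5 buffer with KCl, MgCl2, BSA, DTT, tRNA and Tween-20. Steps lasted 0.8–1.5 h (lowest) to 10–20 min (highest). Titrations ran without input, with 200 uM small-molecule ligand, or with an oligonucleotide input. Normalised cluster fluorescence was curve-fitted, and apparent KD is the per-design median over clusters.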

[1] = Eterna round: R95, input ligand: FMN 200 uM
[2] = Eterna round: R95, input ligand: microRNA oligo, concentration not stated
[3] = Eterna round: R95, input ligand: none
[4] = input ligand: microRNA oligo, concentration not stated

| Sequence | apparent KD of MS2 coat protein [1] | apparent KD of MS2 coat protein [2] | apparent KD of MS2 coat protein [3] | apparent KD of MS2 coat protein (input ligand: FMN 200 uM) | apparent KD of MS2 coat protein (input ligand: none) | apparent KD of MS2 coat protein [4] |
| --- | --- | --- | --- | --- | --- | --- |
| CUUAAGGCAGGAUAUGCUGUUUGUGACAUGAGGAUCACCCAUGUGAUGCAGUUUGGGUGUGCAGAAGGGCCUGAGU [JR_E5_Sub032] (puzzle: Exclusion 5) | 96.4 nM | 71.5 nM | 131 nM |  |  |  |
| UAUUUCAUCUAUGGGAGUAACAUGAGGAUCACCCAUGUAUGUCUUGUUUUUUGUUCGUCUAAGACUUUCUGAUCAGU [JR_SV3TOV1_Sub031] (puzzle: Sensor v3, turn-off variant 1) | 34.2 nM | 45.5 nM | 35.4 nM |  |  |  |
| ACAACUGUUCCCAAGCUUUACAUGAGGAUCACCCAUGUUCGUCAAGAUUUGUACCAUCUAACGUAUGGCUCAAGUAC [Eternabot (L1) Solution 48] (Eterna round: R97, puzzle: Sensor, turn-off variant 1) |  |  |  | 23 nM | 24.6 nM |  |
| AUAAUGUGAGGAUAUCAGUCGACUAGCCUCGGCUAGUCGACUGAGAAGGCACAUGAGGAUCACCCAUGUGUUUC [E4/15-A2] (Eterna round: R97, puzzle: Exclusion 4) |  |  |  | 43.9 nM | 18.4 nM |  |
| CUUUUGUGAGGAUAUCAGUAGUAGAACAAUAGUACUACUACUGAGAAGGCACAUGAGGAUCACCCAUGUACCUC [Fiskers Ex 4 Super stable 44 mod 3] (puzzle: Exclusion 4) |  | 18.8 nM |  |  |  |  |
| CUUUAGCAAGCGAGAUCCCACAUGAGGAUCACCCAUGUGCAUCCAGAAUUACUGGGUGCAAAAGCUCGUCUUAUAUC [mod-Eli newdang-1b] (Eterna round: R97, puzzle: Sensor, turn-off variant 1) |  |  |  | 58.4 nM | 62.6 nM |  |
| GGGCCUGGUGUAGGAUAUCGUGGGCGGUGUCGGCGAGAAGGACAUGAGGAUCACCCAUGUCCGGGCUCGGGUUCCCGGGCUUGG [second try -37.9 kcal and 14% A] (Eterna round: R96, puzzle: Exclusion NG 1) |  |  |  | 28.5 nM | 15.4 nM | 13 nM |
| UUAAUUUAAGGGAUAGAUCAUUACAUGAGGAUCACCCAUGUUGAGGAUAUCAGCUCGAUUAGAGCUGAGAAGGCAACAAUAGGG [ExNG3/14-A1] (Eterna round: R96, puzzle: Exclusion NG 3) |  |  |  | 46 nM | 63.8 nM | 47.1 nM |
| CAUGAUUGGGAAGGAUAUUGACCUAGUUAGCGCCGAGAAGGUCCCUGUCACAUGAGGAUCACCCAUGUGAGUCUGGUGUUCGAG [Ex NG1 #95] (Eterna round: R96, puzzle: Exclusion NG 1) |  |  |  | 29.7 nM | 21.6 nM | 17.7 nM |
| UCCAACCCUGUGAGGAUAUCGUCCAUUUUUUGUUACGAGAAGGCACAUGAGGAUCACCCAUGUUUUUUAUUUUU [JR_BMOE4_Sub079] (puzzle: Brourd's mod of Exclusion 4) |  | 23.8 nM |  |  |  |  |
| AAUUUACAUGAGGAUCACCCAUGUGAGGAUAUAUGCAAACAAUUUUUAUUAAUAAAGCAUAGAAGGCGCGUGAU [JR_Exc1_Sub043] (Eterna round: R97, puzzle: Exclusion 1) |  |  |  | 90.5 nM | 65.7 nM |  |
| CUAGUAUAUCAGGAUAUGAUUUUGUGUAGUUAAUCAGAAGGGAUGACAUGAGGAUCACCCAUGUUAAGGGAUGA [JR_Ex6_Sub046] (Eterna round: R97, puzzle: Exclusion 6) |  |  |  | 324 nM | 83.3 nM |  |
| UUUUACUCAGGAUAUAUGAUGUGAAACAUGAGGAUCACCCAUGUAAUAUUAUGGAUGUAAAUAGAAGGGAGAUUUA [Mat - Exclusion 5 - JL mod - D16] (puzzle: Exclusion 5) | 46.4 nM | 45.5 nM | 59.5 nM |  |  |  |
